B1: Full-length human His6-Kif15 (natural protein, UniProt Q9NS87 1-1388, looked up)
chain: MAPGCKTELRSVTNGQSNQPSNEGDAIKVFVRIRPPAERSGSADGEQNLCLSVLSSTSLRLHSNPEPKTFTFDHVADVDTTQESVFATVAKSIVESCMSGYNGTIFAYGQTGSGKTFTMMGPSESDNFSHNLRGVIPRSFEYLFSLIDREKEKAGAGKSFLCKCSFIEIYNEQIYDLLDSASAGLYLREHIKKGVFVVGAVEQVVTSAAEAYQVLSGGWRNRRVASTSMNRESSRSHAVFTITIESMEKSNEIVNIRTSLLNLVDLAGSERQKDTHAEGMRLKEAGNINRSLSCLGQVITALVDVGNGKQRHVCYRDSKLTFLLRDSLGGNAKTAIIANVHPGSRCFGETLSTLNFAQRAKLIKNKAVVNEDTQGNVSQLQAEVKRLKEQLAELASGQTPPESFLTRDKKKTNYMEYFQEAMLFFKKSEQEKKSLIEKVTQLEDLTLKKEKFIQSNKMIVKFREDQIIRLEKLHKESRGGFLPEEQDRLLSELRNEIQTLREQIEHHPRVAKYAMENHSLREENRRLRLLEPVKRAQEMDAQTIAKLEKAFSEISGMEKSDKNQQGFSPKAQKEPCLFANTEKLKAQLLQIQTELNNSKQEYEEFKELTRKRQLELESELQSLQKANLNLENLLEATKACKRQEVSQLNKIHAETLKIITTPTKAYQLHSRPVPKLSPEMGSFGSLYTQNSSILDNDILNEPVPPEMNEQAFEAISEELRTVQEQMSALQAKLDEEEHKNLKLQQHVDKLEHHSTQMQELFSSERIDWTKQQEELLSQLNVLEKQLQETQTKNDFLKSEVHDLRVVLHSADKELSSVKLEYSSFKTNQEKEFNKLSERHMHVQLQLDNLRLENEKLLESKACLQDSYDNLQEIMKFEIDQLSRNLQNFKKENETLKSDLNNLMELLEAEKERNNKLSLQFEEDKENSSKEILKVLEAVRQEKQKETAKCEQQMAKVQKLEESLLATEKVISSLEKSRDSDKKVVADLMNQIQELRTSVCEKTETIDTLKQELKDINCKYNSALVDREESRVLIKKQEVDILDLKETLRLRILSEDIERDMLCEDLAHATEQLNMLTEASKKHSGLLQSAQEELTKKEALIQELQHKLNQKKEEVEQKKNEYNFKMRQLEHVMDSAAEDPQSPKTPPHFQTHLAKLLETQEQEIEDGRASKTSLEHLVTKLNEDREVKNAEILRMKEQLREMENLRLESQQLIEKNWLLQGQLDDIKRQKENSDQNHPDNQQLKNEQEESIKERLAKSKIVEEMLKMKADLEEVQSALYNKEMECLRMTDEVERTQTLESKAFQEKEQLRSKLEEMYEERERTSQEMEMLRKQVECLAEENGKLVGHQNLHQKIQYVVRLKKENVRLAEETEKLRAENVFLKEKKRSES
notes: Kinesin-12 Kif15 (hKlp2), human; complete ORF amplified from a cDNA library of hTERT-RPE1 cells; predicted molecular weight of His6-hKif15 164.8 kDa; A TEV cleavage site lies between His6 and the ORF (His6/TEV element of p11 in a modified pIEx/Bac1 vector); no cleavage is described; Tetramer at physiological ionic strength, dimer at 300 mM NaCl; also called hKif15; His6-hKif15; source: insect SF9 …
B2: Full-length human His6-Kif15-eGFP (natural protein, UniProt Q9NS87 1-1388, looked up)
chain: B1 chain
notes: Kinesin-12 Kif15 (hKlp2), human; complete ORF from a cDNA library of hTERT-RPE1 cells, eGFP inserted via AscI/NotI behind the ORF; His6/TEV element before the ORF as in m1; also called hKif15-eGFP; His6-hKif15-eGFP; source: insect SF9 cells (baculovirus), purified (SP-sepharose cation exchange, then Talon/Co-NTA); not shown: His6, N-terminal, kept; eGFP, C-terminal, kept

Tests used:
[1] = target: the molecule itself; test: native gel or EMSA; 4-16% Native-PAGE gel stained with coomassie
[2] = target: the molecule itself; test: glycerol gradient ultracentrifugation; 5-40% glycerol gradient, 35 mM sodium phosphate buffer, 300 mM NaCl, 1 mM DTT, 4°C, 15 hr; tetramer to dimers
[3] = target: taxol-stabilised microtubules; test: co-sedimentation; microtubule sedimentation, 15 nM tetrameric hKif15 with 30 nM dimeric hTpx2, AMP-PNP, 35 mM sodium phosphate buffer pH 7.0, 1 mM MgCl2, 1 mM EGTA, 1 mM DTT, 20 min at room temperature; conditions: both partners purified
Chain of taxol-stabilised microtubules (chain, as listed by the source, chain 1 of 2): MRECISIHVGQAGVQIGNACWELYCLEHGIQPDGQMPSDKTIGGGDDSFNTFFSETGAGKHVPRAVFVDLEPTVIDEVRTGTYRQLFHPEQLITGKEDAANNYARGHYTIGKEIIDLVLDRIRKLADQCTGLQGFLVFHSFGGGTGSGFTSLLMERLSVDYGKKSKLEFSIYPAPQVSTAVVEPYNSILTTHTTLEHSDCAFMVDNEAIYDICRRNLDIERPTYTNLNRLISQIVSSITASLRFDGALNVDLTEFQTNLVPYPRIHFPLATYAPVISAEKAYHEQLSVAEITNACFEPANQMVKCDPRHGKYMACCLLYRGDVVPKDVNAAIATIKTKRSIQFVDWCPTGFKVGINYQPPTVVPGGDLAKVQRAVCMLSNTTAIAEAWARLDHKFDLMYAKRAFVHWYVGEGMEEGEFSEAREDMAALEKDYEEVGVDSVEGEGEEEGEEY
Chain of taxol-stabilised microtubules (chain, as listed by the source, chain 2 of 2): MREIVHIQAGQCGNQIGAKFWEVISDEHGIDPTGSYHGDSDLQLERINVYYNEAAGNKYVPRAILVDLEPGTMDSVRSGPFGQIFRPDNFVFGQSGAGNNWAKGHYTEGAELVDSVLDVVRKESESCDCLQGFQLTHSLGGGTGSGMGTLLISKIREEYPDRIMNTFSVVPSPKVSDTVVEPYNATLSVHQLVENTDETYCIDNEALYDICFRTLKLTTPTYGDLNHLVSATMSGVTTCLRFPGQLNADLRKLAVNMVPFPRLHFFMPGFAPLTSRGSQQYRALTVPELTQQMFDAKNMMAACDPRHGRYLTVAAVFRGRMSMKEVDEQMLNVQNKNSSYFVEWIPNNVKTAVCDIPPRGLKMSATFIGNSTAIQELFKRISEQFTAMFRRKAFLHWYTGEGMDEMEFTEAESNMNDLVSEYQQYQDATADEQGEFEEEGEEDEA

[4] = target: the molecule itself; test: glycerol gradient ultracentrifugation; 5-40% glycerol gradient, 35 mM sodium phosphate buffer, 0-150 mM NaCl, 1 mM DTT, 4°C, 15 hr; apparent sedimentation coefficients

| Binder | stoichiometry N [1] | stoichiometry N [2] | KD with 30 nM dimeric hTpx2 [3] | stoichiometry N [4] |
| --- | --- | --- | --- | --- |
| B1 | 4 | 2 | 490 nM | – |
| B2 | – | – | – | 4 |

— publication PMC3965211, “The Kinesin-12 Kif15 is a processive track-switching tetramer” (eLife, 2014)
